Test results: paper PMC4482198

Molecular target: Angiotensin-II (Rattus norvegicus)
Test: radioligand

Kd: 2.8 nM
B1: Angiotensin II type-1 receptor (AT1R), P25095 (protein)
chain: MALNSSAEDGIKRIQDDCPKAGRHSYIFVMIPTLYSIIFVVGIFGNSLVVIVIYFYMKLKTVASVFLLNLALADLCFLLTLPLWAVYTAMEYRWPFGNHLCKIASASVSFNLYASVFLLTCLSIDRYLAIVHPMKSRLRRTMLVAKVTCIIIWLMAGLASLPAVIHRNVYFIENTNITVCAFHYESRNSTLPIGLGLTKNILGFLFPFLIILTSYTLIWKALKKAYEIQKNKPRNDDIFRIIMAIVLFFFFSWVPHQIFTFLDVLIQLGVIHDCKISDIVDTAMPITICIAYFNNCLNPLFYGFLGKKFKKYFLQLLKYIPPKAKSHSSLSTKMSTLSYRPSDNMSSSAKKPASCFEVE
